Reference: the DeepSol protein solubility set

experiment: soluble on expression in E. coli; label from the status in PepcDB or PDB records

Sequence	soluble on expression in E. coli
SLKIAIVRLSALGDIIQSAVVLQFIKNFKKDIEIHWFVDEKFEGILKNHPLINKLYALPLKDKKILKSLKILLKARKNNYNAVIDLQGLIKSAIVSRILSRNNFGFDKNSLKESFAHNFYNQKLELDYNENVFVRYLSLTSFMLNTDFNVKNLAFKQDIFSVDENLKQLLNNKLKLDKNEKNILIHVGSSVENKIYPKTKLAILCKLLINEFQQTKIWLAWGNVKEYEFAKEVLNLSGIDETHIELAPKFNLEELMAFTKMMNLIIGNDSGPTHLAFALNKASITIFGATPSYRNAFQTHINKIIDAGKKIQNAKHIDKSDFCITRIEEEDIFKLAKGLLN	soluble
SLKIRERFSMVDLPVLIITAAIIGHDKYKAFHAGANDILQKPYHYSEFMARIQNLIMMKHTANQATRMEMAFLQSQIKPHFLYNVLNTIISLTHLDIEKAREVTEEFTNYLRMSFDFQNTSAISSFRHELSIINSYLSIEKTRFSNRLEVLFDIDEDIDFILPPLMIQPLVENAVLHGVSKKRGGGWIKLTAKKQSKNEYHIKVEDNGPGITPEKQIDLLSTDFDRSVGLKNINQRLKHFCGSELMISSTPDAGTSVSMLIHLAETTGSPKELKDTERT	soluble
SLKNKTLIALLLACSPTLAFAHNLTVGSPVPAVGVEKHGEIVLQDNNINYQKWRSADLLGKVRVIQAIAGRSSSKEMNAPLMAAITAAKFPAESYQTTTIINQDDAIWGTSSFVKSSAQDSKKEFPWSSMVLDEFGLVAQAWQLQAESSAIIVQDKQGNVLFVKEGALNEADIQTVLGLIQQNL	not soluble
SLKYEDINENTIKITLSFDDLTDYDIKLSDFFGNQEVIEQFFYELVDELGLENRFGNVGMLTFQIQPFPQGVHMIVHEEAMLGEGGEIPDDPEEFEELMTGFYNKLNEIGADMARERGITDFKPGLGLPGTKKDEAEQEPDFIYYSIRYEDIMSVLTGIKNVKFADEESEFYRYDGNFYLVVLDNQKEKGKMHVESTRSRMMEYGEATKMSREFLQEYGECLIATRALDVLRKI	soluble
SLKYVDEFRNGDYAKTLVRLIQKLTKKKINIMEICGSHTMAIFRYGIKDILPSNIRLISGPGCPVCVTSQGYIDTALELSLSREVIIATFGDMIRVPGTKTSLMKRKAEGADIKIVYSPMDALTLAENNPLKKVVFLSVGFETTTPITAITILEAKKRGVKNIFFLTSNKMVPPVMRTLVEDKELNITGFLLPGNVSAIIGKKPYEFLSSEYNVSGVVTGFEPLDILKGLKVLIDIINNNASVIVNEYKRVVRDEGNVTALRYIKEVFEVTDSTWRGIGNIEKSGYKINTEYEQFDAVKQFNINYKECDSSSECRCGDILKGKITPIECSLFKKACTPDHPVGSCMVSYEGVCAAYYKFLNT	soluble
SLMAGSFCWRMLGLVSKVGNRARCFSSVAASEEELLDFSGSELQFNSCSLHLSLHPFFNFLLGIHSCFVCKESKTDVKRCVVTQCGKFYHEACVKKYPLTVFESRGFRCPLHSCVSCHASNPSNPRPSKGKMMRCVRCPVAYHSGDACLAAGCSVIASNSIICTAHFTARKGKRHHAHVNVSWCFVCSKGGSLLCCESCPAAFHPDCLNIEMPDGSWFCNDCRAGKKLHFQDIIWVKLGNYRWWPAEVCHPKNVPPNIQKMKHEIGEFPVFFFGSKDYYWTHQARVFPYMEGDRGSRYQGVRGIGRVFKNALQEAEARFREIKLQREARETQESERKPPPYKHIKVNKPYGKVQIYTADISEIPKCNCKPTDENPCGFDSECLNRMLMFECHPQVCPAGEFCQNQCFTKRQYPETKIIKTDGKGWGLVAKRDIRKGEFVNEYVGELIDEEECMARIKHAHENDITHFYMLTIDKDRIIDAGPKGNYSRFMNHSCQPNCETLKWTVNGDTRVGLFAVCDIPAGTELTFNYNLDCLGNEKTVCRCGASNCSGFLGDRPKTSTTLSSEEKGKKTKKKTRRRRAKGEGKRQSEDECFRCGDGGQLVLCDRKFCTKAYHLSCLGLGKRPFGKWECPWHHCDVCGKPSTSFCHLCPNSFCKEHQDGTAFSCTPDGRSYCCEHDLGAASVRSTKTEKPPPEPGKPKGKRRRRRGWRRVTEGK	soluble
SLNKKFSYPIPNFTDRRKSIIFWRYLRFQARKILYFPQVRLLEKTLNKEKNKHLKDFFSQRPYACYNATRRFCDKSFKANERVKTLIYDVDKGLACFKFLPEEQIIFSFDEDFELFLGYNYNVCEEGFWAFSLKFKKYTILQCNFCFTLENNLLLSCIQGHKYKDFNILEINKILTKKCHGLRPVALLIECSKMLCEILKLQTTLGVHEKNQIRSQKGKEKGYFVDYQKIWLENGGELIKINKHKYYKLHHSQKNLEEIPSQKRSMYKKRFAMLEEIKTNLDKTLSIQD	not soluble
SLNSLASHTFISGSTGTGKSNTVYEILDEVRKHGVKFLVVEPVKGEYKHIFGNDENVSVYGTNPELSDLLRINPFAFPKGIHVLEHLDRLIEIFNVCWPMYAAMPAVLKNAVERAYEDSGWDLLKSINSYGDLYPTFADVTRNIKEIIDSSEYDNENKGAYKGSLLTRLESLTNGINGMIFTNQAITDKELFDENVIIDLSRVGSTETKSLIMGMLVLKLQEYRMTHTDSLNNILKHVTVLEEAHNILKRTSNEQSMEDSNLVGKSVEMIANGIAEMRTYGEGFIIADQAPGLMDMAVIRNTNTKIIMRLPDFSDRELVGKSANL	not soluble
SLPKFGIEKRYNAAKSDIVSYLEKNNRNTSLGARFDMWENALIAIKEAPIFGHGSDGYDEFRHKQVKSKQMAKTTLNFGSLHNQYLESWVKRG	not soluble
SLPNGEGLQLKENSESEGVSCHYWSLFDGHAGSGAAVVASRLLQHHITEQLQDIVDILKNSAVLPPTCLGEEPENTPANSRTLTRAASLRGGVGAPGSPSTPPTRFFTEKKIPHECLVIGALESAFKEMDLQIERERSSYNISGGCTALIVICLLGKLYVANAGDSRAIIIRNGEIIPMSSEFTPETERQRLQYLAFMQPHLLGNEFTHLEFPRRVQRKELGKKMLYRDFNMTGWAYKTIEDEDLKFPLIYGEGKKARVMATIGVTRGLGDHDLKVHDSNIYIKPFLSSAPEVRIYDLSKYDHGSDDVLILATDGLWDVLSNEEVAEAITQFLPNCDPDDPHRYTLAAQDLVMRARGVLKDRGWRISNDRLGSGDDISVYVIPLIHGNKLS	not soluble
SLQCLRFPGLALPHTRAPSPLGPTRDPVATFLETCREPGSQPAGPASLRAEYLPPSVASIKVSAELLRAALKDGHSGVPLCCATLQWLLAENAAVDVVRARALSSIQGVAPDGANVHLIVREVAMTDLCPAGPIQAVEIQVESSSLADICRAHHAVVGRMQTMVTEQAAQGSSAPDLRVQYLRQIHANHETLLREVQTLRDRLCTEDEASSCATAQRLLQVYRQLRHPSLILL	soluble
SLRETVFRNARVLDVARGAYDDGQSVVVRDGVIVAVATDAHRLAGADAREIDVAGRVLMPGLCDAHVHVTAFTPDFALLGRTAPSYVTVRAQDILQGMIGRGFTTVRDAGGADWGLAKALAEGAIVGPRLLYCGHALSQTGGHADMRGPGQHNLDQCLCCAGLGQVCDGVPEMRRACREEIRKGATHLKLMVSGGVASPTDRIDSTQFALDELRAACEEAEAANIPVMAHAYTGRAAVRALEAGVSSIEHGNLIDQAAIDTLLRLDRWLVPTLATYHALAAEGVEAGMPAELNKKVYTVLEAGTEALRMAAKAGVKLVYGSDLLGTMQRHQLTEFAIRAVVQDPIDILRAATTQAAALFRMEDRIGAVRAGYLADLLIVDGDVLHSVAPWSAPEETIKMVMKDGEILVSR	soluble
SLRLLLELKALNSIDKKQLSNYLIQGFIYNILKNTEYSWLHNWKKEKYFNFTLIPKKDIIENKRYYLIISSPDKRFIEVLHNKIKDLDIITIGLAQFQLRKTKKFDPKLRFPWVTITPIVLREGKIVILKGDKYYKVFVKRLEELKKYNLIKKKEPILEEPIEISLNQIKDGWKIIDVKDRYYDFRNKSFSAFSNWLRDLKEQSLRKYNNFCGKNFYFEEAIFEGFTFYKTVSIRIRINRGEAVYIGTLWKELNVYRKLDKEEREFYKFLYDCGLGSLNSMGFGFVNTKKNSAR	soluble
